Data as given in article PMC5874916.

Key:
[1] = target: purified recombinant eEF1A1 (OriGene), biotinylated (UniProt P68104); assay: BLI; Octet Red; biotinylated eEF1A1 immobilised on streptavidin-coated biosensors, 90 nM RTp51/p66 heterodimer; kinetic buffer 1 mM phosphate, 15 mM NaCl, 0.002% Tween 20, 0.1 mg/ml gelatin
[2] = target: purified recombinant eEF1A1 (OriGene), biotinylated (UniProt P68104); assay: BLI; conditions: biotinylated eEF1A immobilized on a streptavidin-coated biosensor, 90 nM RT heterodimer, E300R in both RTp51 and RTp66 subunits
HaloTag-eEF1A [3] = target: HaloTag-eEF1A (UniProt P68104); assay: FRET or BRET; NanoBRET in HEK293T cells cotransfected with 5 ng RTp66-NanoLuc (donor) and 500 ng HaloTag-eEF1A (acceptor), HaloTag NanoBRET 618 Ligand; BRET ratio of the RSV P-NanoLuc control subtracted, normalized to WT RT
HaloTag-eEF1A [4] = target: HaloTag-eEF1A (UniProt P68104); assay: NanoBRET; conditions: HEK293T cells cotransfected; n = 3; parent: est. 100; read off a plot
[5] = target: HIV-1 reverse transcriptase (Human immunodeficiency virus 1) (UniProt O93215); conditions: cited from earlier work

Chain of HaloTag-eEF1A (P68104 whole entry): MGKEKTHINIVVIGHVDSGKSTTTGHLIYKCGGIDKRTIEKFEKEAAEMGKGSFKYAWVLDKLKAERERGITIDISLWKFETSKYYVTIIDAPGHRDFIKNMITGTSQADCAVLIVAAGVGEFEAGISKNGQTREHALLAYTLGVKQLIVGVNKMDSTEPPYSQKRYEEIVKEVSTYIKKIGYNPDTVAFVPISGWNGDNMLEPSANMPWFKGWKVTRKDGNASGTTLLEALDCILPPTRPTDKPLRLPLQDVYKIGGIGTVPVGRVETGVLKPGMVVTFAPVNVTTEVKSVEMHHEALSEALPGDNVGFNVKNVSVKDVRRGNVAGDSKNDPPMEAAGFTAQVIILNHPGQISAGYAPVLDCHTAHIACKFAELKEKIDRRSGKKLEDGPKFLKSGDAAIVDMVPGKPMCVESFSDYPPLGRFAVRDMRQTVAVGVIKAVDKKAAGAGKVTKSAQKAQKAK
Chain of purified recombinant eEF1A1 (OriGene), biotinylated (P68104 whole entry): as above
Chain of eEF1A (P68104 2-462): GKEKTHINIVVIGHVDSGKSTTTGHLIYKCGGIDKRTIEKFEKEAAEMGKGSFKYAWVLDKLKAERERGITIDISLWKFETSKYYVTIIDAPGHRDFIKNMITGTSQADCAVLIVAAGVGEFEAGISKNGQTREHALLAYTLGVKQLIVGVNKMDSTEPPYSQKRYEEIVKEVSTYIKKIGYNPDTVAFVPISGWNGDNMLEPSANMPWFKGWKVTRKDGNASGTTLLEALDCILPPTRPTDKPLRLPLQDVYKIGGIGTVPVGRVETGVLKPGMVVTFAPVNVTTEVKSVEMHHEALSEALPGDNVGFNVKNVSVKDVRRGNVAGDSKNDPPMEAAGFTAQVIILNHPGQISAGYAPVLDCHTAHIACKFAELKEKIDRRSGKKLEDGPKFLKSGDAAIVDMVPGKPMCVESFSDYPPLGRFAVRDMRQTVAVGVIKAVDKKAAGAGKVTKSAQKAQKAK

6xHis-tagged E300R mutant RTp51/p66 heterodimer purified from E. coli (complex)
fold change of koff against the WT heterodimer [1]: 3 fold
fold weaker binding affinity (KD) than the WT heterodimer [1]: 3 fold

6xHis-tagged WT RTp51/p66 heterodimer purified from E. coli (from UniProt P04585) E300R
Kd ([2]; parent: 3.4787 ± 0.079): 10.3 nM
koff ([2]; parent: 4.75E-4 ± 2.5E-5): 0.00139 s⁻¹
kon ([2]; parent: 136350 ± 4150): 135000 1/MS

HIV-1 RTp66-NanoLuc, D250R (enzyme)
percent reduction of the BRET ratio against WT RT (HaloTag-eEF1A [3]): 33%

HIV-1 RTp66-NanoLuc, E297R (enzyme)
percent reduction of the BRET ratio against WT RT (HaloTag-eEF1A [3]): 20%

HIV-1 RTp66-NanoLuc, E298R (enzyme)
percent reduction of the BRET ratio against WT RT (HaloTag-eEF1A [3]): 40%

HIV-1 RTp66-NanoLuc, E300R (enzyme)
percent reduction of the BRET ratio against WT RT (HaloTag-eEF1A [3]): 70%

HIV-1 RTp66-NanoLuc, wild type L303A
percent of parent (HaloTag-eEF1A [4]): 43 % WT

eEF1A (from UniProt P68104)
Kd [5]: 3.5 nM
